Where two headings read alike, the source gives them in different places.
Experiments:
[1] = in vivo; cited from earlier work
[2] = biological target: human NTS1 (Homo sapiens, UniProt P30989); assay: Competitive radioligand binding assay, NTS1; conditions: Ki (NTS1, nM), membranes of CHO cells stably expressing human NTS1; mean ± SEM, 4-8 experiments
Procedure: (§1) Receptor binding data were performed as described previously. […] NTS2 binding was conducted using homogenates of membranes from HEK 293 cells transiently transfected with pcDNA3.1 carrying the human NTS2 gene (Missouri S&T cDNA Resource Center (UMR), Rolla, MO, USA) using the Mirus TransIT-293 transfection reagent (MoBiTec, Göttingen, Germany) according to the manufacturer’s protocol.
(§2) Data analysis of the competition binding curves from the radioligand displacement experiments was done by non-linear regression analysis when applying the algorithms of the PRISM 6.0 software package (GraphPad Software, San Diego, CA, USA). EC50 values were derived from each dose-response curve and were subsequently transformed into the corresponding Ki values by applying the equation of Cheng and Prusoff. Mean Ki values and the corresponding S.E.M. values (standard error of the mean) were determined by analyzing four to eight individual experiments.

[3] = test system: PSMA; set-up: method as in PMID 25999035; conditions: Ga complexes; read-out: Affinity IC50 (nM), PSMA; cited from earlier work
[4] = Biodistribution, LNCaP xenograft; conditions: in vivo, 60 min p.i., estimated from PET ROI analysis, ± SD
[5] = Octanol/PBS distribution coefficient log D pH 7.4; assay type: physicochemical
[6] = cited from earlier work
[7] = test system: αvβ6 integrin; set-up: method as in PMID 27980050; conditions: Ga complexes; read-out: Affinity IC50 (nM), αvβ6 integrin; cited from earlier work
[8] = test system: H2009 xenograft; conditions: in vivo, 1.5 h; cited from earlier work
[9] = in vivo, H2009 xenograft, 90 min p.i., estimated from PET ROI analysis, ± SD
[10] = test system: αvβ6 integrin; assay: Affinity to αvβ6 integrin; assay type: binding; conditions: Ga complexes
[11] = Biodistribution in HT29 tumor-bearing nude mice; assay type: in vivo, mouse; conditions: mouse, in vivo, 60 min p.i.
Procedure: For in vivo evaluation of [^68Ga]Ga-TRAP(NT4)3 the NTS1-positive human colorectal adenocarcinoma cells HT29 were injected in nude mice to generate a subcutaneous tumor. The radioligand was injected in the tail vein of the mice and the biodistribution was determined 60 and 90 min after tracer injection. […] The clearance rate of [^68Ga]Ga-TRAP(NT4)3 in these excretion organs was apparently low. […] (1.44 %ID/g). Blocking experiments were performed to confirm the specificity of the tumor uptake of [^68Ga]Ga-TRAP(NT4)3 in vivo. Therefore, TRAP(NT4)3 (20 nmol) or NT4 (100 nmol) were co-injected together with the radiotracer to define the nonspecific uptake of the tracer in the tumor region. […] Apart from the intestine, the uptake in all other organs was not affected by the blocking substances (Table 2), confirming the receptor-mediated uptake of [^68Ga]Ga-TRAP(NT4)3, as it was reported that NTS receptors are expressed in the small intestine of mice.
All animal experiments were performed in compliance with the protocols approved by the local Animal Protection Authorities (Regierung Mittelfranken, Germany, no. 54-2532.1-15/08). Female athymic NMRI nude mice (nu/nu) were obtained from Harlan Winkelmann GmbH (Borchen, Germany) at four weeks of age and were kept under standard conditions (12 h light/dark) with food and water available ad libitum for at least five weeks. HT29 tumors were generated as described before.
HT29 xenografted nude mice were injected with [^68Ga]Ga-TRAP(NT4)3 into a tail vein (2.5–7.5 MBq/mouse). The animals were killed by cervical dislocation 60 or 90 min p.i. The tumors, other tissues (lung, liver, kidneys, heart, spleen, brain, muscle, femur, and intestine) and blood were removed and weighed. Radioactivity of the samples was measured using a γ-counter and expressed as the percentage of injected dose per gram of tissue (%ID/g), from which tumor-to-blood ratios were calculated. Blocking experiments were carried out by co-injecting randomly chosen mice with TRAP(NT4)3 (20 nmol/mouse) or NT4 (100 nmol/mouse) together with the radiotracer. These mice were killed by cervical dislocation at 60 min p.i., and organs and tissue were removed, weighed, and counted as described above.

[12] = biological target: T1, human NTS2 (Homo sapiens, UniProt O95665); assay: Competitive radioligand binding assay, NTS2
T1 construct: host or cells: HEK 293 cells (transient transfection, pcDNA3.1)
Procedure: as §1, §2

human NTS1, sequence (P30989 whole entry): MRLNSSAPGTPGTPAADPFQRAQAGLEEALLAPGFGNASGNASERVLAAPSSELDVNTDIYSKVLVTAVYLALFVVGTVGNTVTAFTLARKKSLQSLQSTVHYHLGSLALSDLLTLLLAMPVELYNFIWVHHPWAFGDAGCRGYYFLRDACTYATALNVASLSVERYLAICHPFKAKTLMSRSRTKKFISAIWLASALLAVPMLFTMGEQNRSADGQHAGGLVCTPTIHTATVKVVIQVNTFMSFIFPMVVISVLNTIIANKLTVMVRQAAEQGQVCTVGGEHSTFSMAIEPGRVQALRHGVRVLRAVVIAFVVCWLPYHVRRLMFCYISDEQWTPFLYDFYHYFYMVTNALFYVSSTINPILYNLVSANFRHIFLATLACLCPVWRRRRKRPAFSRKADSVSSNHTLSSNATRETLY
T1 sequence (O95665 whole entry): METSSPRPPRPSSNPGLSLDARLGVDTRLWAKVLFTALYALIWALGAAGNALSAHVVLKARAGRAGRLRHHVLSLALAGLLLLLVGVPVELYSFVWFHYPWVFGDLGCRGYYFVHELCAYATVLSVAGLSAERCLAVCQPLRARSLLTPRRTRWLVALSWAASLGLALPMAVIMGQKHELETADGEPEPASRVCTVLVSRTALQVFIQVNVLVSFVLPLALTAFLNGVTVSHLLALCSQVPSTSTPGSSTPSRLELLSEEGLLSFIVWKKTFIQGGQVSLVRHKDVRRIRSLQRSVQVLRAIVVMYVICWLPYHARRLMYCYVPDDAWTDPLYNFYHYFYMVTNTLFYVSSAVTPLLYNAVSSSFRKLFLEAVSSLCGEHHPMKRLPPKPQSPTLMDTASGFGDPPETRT

## Arg^8-Arg^9-Pro^10-Tyr^11-Ile^12-Leu^13-OH [NT(8–13)]
[1]
  biological half-life: only a few minutes, or even less

## CC(C)C[C@H](NC(=O)[C@@H](NC(=O)[C@H](Cc1ccc(O)cc1)NC(=O)[C@@H]1CCCN1C(=O)[C@H](CCCCN)NC(=O)CN(CCCCN)C(=O)[C@@H](N)CCCCn1cc(CNC(=O)CCP(=O)(O)CN2CCN(CP(=O)(O)CCC(=O)NCc3cn(CCCC[C@H](N)C(=O)N(CCCCN)CC(=O)N[C@@H](CCCCN)C(=O)N4CCC[C@H]4C(=O)N[C@@H](Cc4ccc(O)cc4)C(=O)N[C@H](C(=O)N[C@@H](CC(C)C)C(=O)O)C(C)(C)C)nn3)CCN(CP(=O)(O)CCC(=O)NCc3cn(CCCC[C@H](N)C(=O)N(CCCCN)CC(=O)N[C@@H](CCCCN)C(=O)N4CCC[C@H]4C(=O)N[C@@H](Cc4ccc(O)cc4)C(=O)N[C@H](C(=O)N[C@@H](CC(C)C)C(=O)O)C(C)(C)C)nn3)CC2)nn1)C(C)(C)C)C(=O)O (single isomer, unassigned) [Ga-TRAP(NT4)3]
[2]
  Ki: 0.12 ± 0.03 nM

## O=C(O)CC[C@H](NC(=O)N[C@@H](CCCCNC(=O)CCCCCCC(=O)NCCCC[C@H](NC(=O)[C@H](Cc1ccccc1)NC(=O)[C@H](Cc1ccccc1)NC(=O)CCC(C(=O)O)N1CCN(CC(=O)O)CCN(CC(=O)O)CCN(CC(=O)O)CC1)C(=O)O)C(=O)O)C(=O)O (stereo partly shown) [DOTAGA-DUPA]
[3]
  IC50: 36 nM
[4]; read-out: Blood %ID/g
  tissue uptake at 1 h: 2.5 ± 0.14 %ID/g
[4]; read-out: Kidney %ID/g
  tissue uptake at 1 h: 29 ± 7 %ID/g
[4]; read-out: Liver %ID/g
  tissue uptake at 1 h: 2 ± 0.17 %ID/g
[4]; read-out: Muscle %ID/g
  tissue uptake at 1 h: 1.2 ± 0.13 %ID/g
[4]; read-out: Tumor %ID/g
  tissue uptake at 1 h: 2 ± 0.2 %ID/g
[5]
  logD: -3.6 ± 0.2

## TRAP(AvB6)1: Ga-monomer of c(FRGDLAF-p[NMe]K), αvβ6 integrin (cyclo(FRGDLAF); not fully specified (C-terminus); also: TRAP chelator Ga complex, attachment site not given here)
[6]
  log D pH 7.4: −3.7
[7]
  IC50: 0.26 nM
[8]
  Blood %ID/g: 0.17 %ID/g
  Kidney %ID/g: 4.3 %ID/g
  Liver %ID/g: 0.36 %ID/g
  Muscle %ID/g: 0.06 %ID/g
  Tumor %ID/g: 0.65 %ID/g

## CC(C)C[C@@H]1NC(=O)[C@H](CC(=O)O)NC(=O)CNC(=O)[C@H](CCCNC(=N)N)NC(=O)[C@H](Cc2ccccc2)NC(=O)[C@H](CCCCNC(=O)CCc2cn(CCCNC(=O)CCP(=O)(O)CN3CCN(CP(=O)(O)CCC(=O)NCCCn4cc(CCC(=O)NCCCC[C@H]5C(=O)N[C@@H](Cc6ccccc6)C(=O)N[C@@H](CCCNC(=N)N)C(=O)NCC(=O)N[C@@H](CC(=O)O)C(=O)N[C@@H](CC(C)C)C(=O)N[C@@H](C)C(=O)N[C@@H](Cc6ccccc6)C(=O)N6CCC[C@@H]6C(=O)N5C)nn4)CCN(CP(=O)(O)CCC(=O)NCCCn4cc(CCC(=O)NCCCC[C@H]5C(=O)N[C@@H](Cc6ccccc6)C(=O)N[C@@H](CCCNC(=N)N)C(=O)NCC(=O)N[C@@H](CC(=O)O)C(=O)N[C@@H](CC(C)C)C(=O)N[C@@H](C)C(=O)N[C@@H](Cc6ccccc6)C(=O)N6CCC[C@@H]6C(=O)N5C)nn4)CC3)nn2)N(C)C(=O)[C@H]2CCCN2C(=O)[C@H](Cc2ccccc2)NC(=O)[C@H](C)NC1=O [TRAP(AvB6)3]
[9]; Blood %ID/g
  tissue uptake at 1.5 h: 1.9 ± 0.15 %ID/g
[9]; Kidney %ID/g
  tissue uptake at 1.5 h: 17.7 ± 6.5 %ID/g
[9]; Liver %ID/g
  tissue uptake at 1.5 h: 3.7 ± 0.14 %ID/g
[9]; Muscle %ID/g
  tissue uptake at 1.5 h: 0.71 ± 0.1 %ID/g
[9]; Tumor %ID/g
  tissue uptake at 1.5 h: 0.92 ± 0.08 %ID/g
[10]
  Affinity factor monomer/trimer, αvβ6 integrin: 11
[7]
  IC50: 0.023 nM

## CC(C)C[C@H](NC(=O)[C@@H](NC(=O)[C@H](Cc1ccc(O)cc1)NC(=O)[C@@H]1CCCN1C(=O)[C@H](CCCCN)NC(=O)CN(CCCCN)C(=O)[C@@H](N)CCCCn1cc(CNC(=O)CCP(=O)(O)CN2CCN(CP(=O)(O)CCC(=O)NCc3cn(CCCC[C@H](N)C(=O)N(CCCCN)CC(=O)N[C@@H](CCCCN)C(=O)N4CCC[C@H]4C(=O)N[C@@H](Cc4ccc(O)cc4)C(=O)N[C@H](C(=O)N[C@@H](CC(C)C)C(=O)O)C(C)(C)C)nn3)CCN(CP(=O)(O)CCC(=O)NCc3cn(CCCC[C@H](N)C(=O)N(CCCCN)CC(=O)N[C@@H](CCCCN)C(=O)N4CCC[C@H]4C(=O)N[C@@H](Cc4ccc(O)cc4)C(=O)N[C@H](C(=O)N[C@@H](CC(C)C)C(=O)O)C(C)(C)C)nn3)CC2)nn1)C(C)(C)C)C(=O)O [TRAP(NT4)3]
[2]
  Ki: 0.47 ± 0.05 nM
[5]; octanol/PBS, Ga complex, ± standard deviation, first reported herein, read-out: log D pH 7.4
  logD: -3.7 ± 0.1
[11]; read-out: HT29 tumor uptake
  tissue uptake at 1 h: 1.74 %ID/g
[11]; read-out: blood uptake
  tissue uptake at 1 h: 0.13 %ID/g
[11]; read-out: kidney uptake
  tissue uptake at 1 h: 95 %ID/g
[11]; read-out: liver uptake
  tissue uptake at 1 h: 11 %ID/g
[11]; read-out: muscle uptake
  tissue uptake at 1 h: 0.09 %ID/g
[12]
  Ki: 0.26 ± 0.05 nM
